# Patent US9879306B2, “Luciferase biosensors for cAMP” (PROMEGA CORPORATION, priority 2008, dated 2018)
# Where a chain is given by its changes, count along the chain named. Numbers in names are those of the source.
# T1: GPR41 (Homo sapiens, UniProt O14843)
# T1 sequence (O14843 1-346): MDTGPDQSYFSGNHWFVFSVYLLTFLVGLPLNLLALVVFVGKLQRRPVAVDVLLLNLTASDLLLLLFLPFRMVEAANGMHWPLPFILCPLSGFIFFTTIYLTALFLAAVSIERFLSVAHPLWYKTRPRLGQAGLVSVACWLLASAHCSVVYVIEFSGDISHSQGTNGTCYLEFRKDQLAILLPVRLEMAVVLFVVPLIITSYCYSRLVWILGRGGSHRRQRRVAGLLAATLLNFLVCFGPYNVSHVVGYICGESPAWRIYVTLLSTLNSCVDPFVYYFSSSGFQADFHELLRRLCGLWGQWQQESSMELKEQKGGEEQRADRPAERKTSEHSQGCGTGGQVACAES
# B1: 16A2: 7A1 biosensor with F518L in Luc2.0; SEQ ID NO:60, 61 (protein)
# chain: MPGAVGKVVPFFEAKVVDLDTGKTLGVNQRGELCVRGPMIMSGYVNNPEATNALIDKDGWLHSGDIAYWDEDEHFFIVDRLKSLIKYKGYQVAPAELESILLQHPNIFDAGVAGLPDDDAGELPAAVVVLEHGKTMTEKEIVDYVASQVTTAKKLRGGVVLVDEVPKGLTGKLDARKIREILIKAKKGSNWDSGCSREGMYESFIESLPFLKSLEFSARLKVVDVIGTKVYNDGEQIIAQGDSADSFFIIESGEVKITMKRKGKSEVEENGAVEIARCSRGQYFGELALVTNKPRAASAHAIGTVKCLAMDVQAFERLLGPCMEIMKRNIATYEEQLVALFGTNMDIVAKNIKKGPAPFYPLEDGTAGEQLHKAMKRYALVPGTIAFTDAHIEVDITYAEYFEMSVRLAEAMKRYGLNTNHRIVVCSENSLQFFMPVLGALFIGVAVAPANDIYNERELLNSMGISQPTVVFVSKKGLQKILNVQKKLPIIQKIIIMDSKTDYQGFQSMYTFVTSHLPPGFNEYDFVPESFDRDKTIALIMNSSGSTGLPKGVALPHRTACVRFSHARDPIFGNQIIPDTAILSVVPFHHGFGMFTTLGYLICGFRVVLMYRFEEELFLRSLQDYKIQSALLVPTLFSFFAKSTLIDKYDLSNLHEIASGGAPLSKEVGEAVAKRFHLPGIRQGYGLTETTSAILITPEGV
# B2: 7A1-LY: 7A1 background with Luc2.0 F518L and RIIβB F407Y; SEQ ID NO:25, 26 (protein)
# chain: B1 chain with F341Y
# B3: 7A1-LQY: 7A1 background with Luc2.0 F518L, K541Q and RIIβB F407Y; SEQ ID NO:58, 59 (protein)
# chain: B1 chain with K184Q, F341Y
# B4: 7A1-ILY: 7A1 background with Luc2.0 F369I, F518L and RIIβB F407Y; SEQ ID NO:27, 28 (protein)
# chain: B1 chain with F12I, F210I, F248Y, F341Y, F359L
# B5: 7A1-ILQ: 7A1 background with Luc2.0 F369I, F518L, K541Q; SEQ ID NO:68, 69 (protein)
# chain: B1 chain with F12I, K184Q
# B6: 7A1-I: 7A1 background with Luc2.0 F369I; SEQ ID NO:66, 67 (protein)
# chain: B1 chain with F12I, L161F
# B7: 7A1-QY: 7A1 background with Luc2.0 K541Q and RIIβB F407Y; SEQ ID NO:109, 110 (protein)
# chain: B1 chain with L161F, K184Q, F341Y
# B8: 7A1-ILQY: 7A1 background with Luc2.0 F369I, F518L, K541Q and RIIβB F407Y; SEQ ID NO:31, 32 (protein)
# chain: B1 chain with F12I, K184Q, F341Y
# B9: 7A1-IY: 7A1 background with Luc2.0 F369I and RIIβB F407Y; SEQ ID NO:39, 40 (protein)
# chain: B1 chain with F12I, L161F, F341Y
# B10: 7A1-IL: 7A1 background with Luc2.0 F369I, F518L; SEQ ID NO:70, 71 (protein)
# chain: B1 chain with F12I
# B11: 7A1-Q: 7A1 background with Luc2.0 K541Q; SEQ ID NO:62, 63 (protein)
# chain: B1 chain with L161F, K184Q
# B12: 7A1-LQ: 7A1 background with Luc2.0 F518L, K541Q; SEQ ID NO:64, 65 (protein)
# chain: B1 chain with K184Q
# B13: 7A1-IQ: 7A1 background with Luc2.0 F369I, K541Q; SEQ ID NO:23, 24 (protein)
# chain: B1 chain with F12I, L161F, K184Q
# How the values were obtained:
# Type in all cases: cell-based
# HEK293 cells = assay: Luminescence and fold response of biosensor clones in HEK293 cells after isoproterenol or FSK
# Description: B. HEK293 cells were transiently transfected with plasmid DNAs encoding various biosensor mutants as above. These biosensor mutants contained the E284A and V316I mutation in the RIIbetaB cAMP binding domain and the modified linker sequence 7A1 (GSNWDSGCSREG; SEQ ID NO: 129). The clones also contained the additional mutations outlined in Table 5. Cells were equilibrated for 2 hours at room temperature with 2 mM EF-Luc. Luminescence was measured 5 and 15 minutes after addition of the isoproterenol and 15 minutes after addition of FSK. Fold response (response; Resp.) was calculated by dividing relative light units (RLUs) from induced cells by the RLUs from uninduced cells. As a control, the biosensor GS358 and 7A1 were included.
# GPR41 [1] = assay: Sodium proprionate CRC with biosensor variants in HEK293 cells stably expressing GPR41; settings: ratio of RLU of FSK treated well to untreated well
# Summary of the method: (§1)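 GPR41-stable HEK293 cells were transiently transfected with a cAMP biosensor variant, then after 24 h equilibrated 2 h at room temperature with 5 mM EF-luc in CO2-independent medium with 10% FBS. Baseline luminescence was read, a sodium propionate concentration series added, and luminescence read after 30 min. EC50 and fold response were derived, with or without FSK.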
# GPR41 [2] = target: T1, GPR41; assay: as above; settings: for Fold Response Na proprionate + FSK(1 μM): with FSK 1 μM; for Fold Response Na proprionate: without FSK, ratio of induced to uninduced signal
# Summary of the method: as §1
# dopamine D2 receptor = target: T2, dopamine D2 receptor (Homo sapiens, UniProt P14416); assay: Forskolin, dopamine and haloperidol responses of biosensor clones in HEK293 cells stably expressing the dopamine D2 receptor
# T2 construct: expressed in transfected cells
# Description: To measure changes in the intracellular concentration of cAMP, HEK293 cells are transiently transfected with mutant cAMP biosensors followed by treatment with compounds known to increase or decrease the intracellular cAMP concentration through GPCR activation of Gs- or Gi-coupled receptors, respectively.
# HEK293 cells stably expressing the dopamine D2 receptor were transiently transfected with the mutant cAMP biosensors from Example VIIB. Cells were also transfected with either 7A1 (Example III) or GS358 (parent biosensor) as controls. Cells were equilibrated for 2 hours at room temperature using 2 mM EF-luc. Antagonist assay wells were pre-treated for 10-15 minutes at room temperature with 10 μM Haloperidol (Halo). Next, the following reagents were added to their respective wells: media alone to “untreated” samples; 3 μM forskolin (FSK) to “forskolin-treated” samples; 3 μM FSK+0.3 μM dopamine to “agonist-treated” samples; and 3 μM FSK+0.3 μM dopamine to the aforementioned wells pre-treated with Halo. The cells were then incubated at room temperature for 10 minutes and luminescence was measured. Fold response for FSK was calculated by dividing the RLU from “forskolin-treated” cells by the RLU from the “untreated” cells. Fold response for dopamine treatment was calculated by dividing the RLU from the “agonist-treated” cells by the RLU from the “forskolin-treated” cells. Fold response for Haloperidol treatment was calculated by dividing the RLU from the cells treated with haloperidol then forskolin plus dopamine by the RLU of cells treated with forskolin plus dopamine alone.
# T2 sequence (P14416 whole entry, species assumed): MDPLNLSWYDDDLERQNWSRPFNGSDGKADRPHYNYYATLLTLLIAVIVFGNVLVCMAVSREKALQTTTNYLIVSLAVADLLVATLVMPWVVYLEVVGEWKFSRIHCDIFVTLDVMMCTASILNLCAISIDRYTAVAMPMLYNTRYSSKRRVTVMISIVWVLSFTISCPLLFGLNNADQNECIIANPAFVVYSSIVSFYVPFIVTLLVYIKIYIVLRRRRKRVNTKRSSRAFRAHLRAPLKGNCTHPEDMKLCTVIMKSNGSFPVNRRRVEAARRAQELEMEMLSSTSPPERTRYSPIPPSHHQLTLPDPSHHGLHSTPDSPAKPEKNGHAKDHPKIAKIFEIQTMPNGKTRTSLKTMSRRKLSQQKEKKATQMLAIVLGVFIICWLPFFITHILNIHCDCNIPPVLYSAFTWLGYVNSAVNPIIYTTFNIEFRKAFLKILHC
Molecule,Fold Signal Change (GPR41 [1]) [fold],Fold Response Na proprionate + FSK(1 μM) (GPR41 [2]) [fold],Fold Response Na proprionate (GPR41 [2]) [fold],other results
B1,89.7,3.76,2.73,"Isoproterenol-5 minutes Induced (HEK293 cells; 5 minutes after isoproterenol): 44890 RLU; Forskolin (FSK) Induced (HEK293 cells; 15 minutes after FSK): 153670 RLU; Isoproterenol-15 minutes Induced (HEK293 cells; 15 minutes after isoproterenol): 141135 RLU; Isoproterenol-5 minutes Resp (HEK293 cells; RLU induced / RLU uninduced, 5 minutes after isoproterenol): 85 fold; Forskolin (FSK) Resp (HEK293 cells; RLU induced / RLU uninduced, 15 minutes after FSK): 76 fold; Isoproterenol-15 minutes Resp (HEK293 cells; RLU induced / RLU uninduced, 15 minutes after isoproterenol): 70 fold; Isoproterenol-5 minutes Uninduced (HEK293 cells; uninduced cells, 5 minutes): 527 RLU; Forskolin (FSK) Uninduced (HEK293 cells; uninduced cells, 15 minutes): 2025 RLU; Isoproterenol-15 minutes Uninduced (HEK293 cells; uninduced cells, 15 minutes): 2025 RLU; Dopamine Induced (dopamine D2 receptor; 3 μM FSK + 0.3 μM dopamine, 10 minutes): 95 RLU; Forskolin (FSK) Induced (dopamine D2 receptor; 3 μM FSK, 10 minutes): 4117 RLU; Halo Induced (dopamine D2 receptor; 10 μM Haloperidol pre-treatment, then 3 μM FSK + 0.3 μM dopamine): 223 RLU; Dopamine Response (dopamine D2 receptor; RLU agonist-treated / forskolin-treated): 0.33 fold; Forskolin (FSK) Response (dopamine D2 receptor; RLU forskolin-treated / untreated): 28 fold; Halo Response (dopamine D2 receptor; RLU haloperidol then FSK + dopamine / FSK + dopamine alone): 2.3 fold; Forskolin (FSK) Uninduced (dopamine D2 receptor; untreated (media alone), 10 minutes): 147 RLU"
B2,141.7,62.19,2.15,
B3,153.1,,1.94,
B4,194.6,8.96,2.49,
B5,181.8,5.68,4.09,
B6,133.9,6.60,3.07,
B7,87.6,161.29,1.68,
B8,220.1,8.13,2.57,
B9,165.7,8.66,2.81,
B10,200.0,4.36,4.66,
B11,71.6,4.26,2.26,
B12,85.2,6.6,2.70,
B13,128.0,3.42,3.66,
